Test results as given in patent US9364412B2, “Electrostatically controlled hydrogels” (University of Utah Research Foundation, priority 2005, dated 2016).
Values belong to the molecule of their own block, whether it stands above or below them. Where no end group is shown, it is not given here.

How the values were obtained:
[1] = Solubility of peptide in buffer (observation); type: physicochemical
[2] = Salt-induced gelation (NaCl added to peptide solution); type: physicochemical; conditions: for final NaCl concentration for salt-induced gelation: peptides dialyzed in 30 mM buffer, pH 6.0
Procedure: For pH-induced gelation, dialyzed peptide solutions in vials were exposed to vapors of acetic acid (acid-induced gelation) or ammonium hydroxide (base-induced gelation). […] For salt-induced gelation, saturated sodium chloride solution was added into the dialyzed stock peptide solution so that the final peptide concentration in the hydrogel was 1 wt %. For mixing-induced gelation, dialyzed peptide solutions were mixed at 1:1 weight ratio such that the final total peptide concentration was 1 wt %.
The salt concentration necessary to induce gelation was quite high as indicated by FIG. 2. All peptides were dialyzed in 30 mM buffer and needed a much higher concentration to trigger hydrogelation.

[3] = target: T1, SEQ ID NO 9, Acetyl-EWEAEAEAEA-amide (negatively charged module); assay: small-angle X-ray scattering of the mixed peptide pair
T1 construct: also called EAW10
T1 peptide: Ac-EWEAEAEAEA-NH2
Procedure: (§1) A small-angle x-ray scattering instrument was used for measurements at 25° C. This instrument has a slit geometry and all analyses were corrected for this. The angular dependence of the scattering of x-rays from particles in a solvent has the form:
(§2) Transmission electron microscopic (TEM) images of all hydrogels show the formation of fibrous network (FIG. 20). However, the drying step involved in the sample preparation for TEM might cause peptide fibers to aggregate further, giving rise to very heterogeneous samples that were difficult to characterize accurately in terms of fiber thickness, estimated very approximately as ~30 nm (diameter). Therefore, small angle X-ray scattering (SAXS) was used to probe the hydrated fibrous network with minimal perturbations to the samples. The measured scattering intensity (I(Q)) increased over time for each of the biomaterials, indicative of the formation of aggregates and consistent with a growing fibril networks (FIG. 18). […] The trend of the gelation kinetics is evident in FIG. 18, and also in the summary of the structural parameters that can be determined using P(r) analysis (Table 4). The kinetics of the formation of these structures is distinctive among the peptide pairs, with the SEQ ID NO 10:SEQ ID NO 11 pair reaching equilibrium most rapidly (between 15 min and 1 h) and the SEQ ID NO 9:SEQ ID NO 8 pair taking more than 11 hours before its small-angle scattering pattern becomes evident. The overall gelation kinetics monitored by SAXS follows a clear order of SEQ ID NO 10:SEQ ID NO 11>SEQ ID NO 9:SEQ ID NO 11>SEQ ID NO 10:SEQ ID NO 8>SEQ ID NO 9:SEQ ID NO 8. The order of gelation kinetics can be directly correlated to the total electrostatic and hydrophobic interactions among the oligopeptide pairs, which is highest for the SEQ ID NO 10:SEQ ID NO 11 pair and least for the SEQ ID NO 9:SEQ ID NO 8 pair. Among the two unequal chain length pairs, kinetics of SEQ ID NO 9:SEQ ID NO 11 (13 charged and 12 apolar amino acids) was faster than SEQ ID NO 10:SEQ ID NO 8 (12 charged and 13 apolar amino acids).

[4] = target: T2, SEQ ID NO 10, Acetyl-WEAEAEAEAEAEAEA-amide (negatively charged module); assay: as above
T2 construct: Synthetic designed 15-mer
T2 peptide: Ac-WEAEAEAEAEAEAEA-NH2
Procedure: as §1, §2

[5] = target: T3, SEQ ID NO 1, Acetyl-EWEVEVEVEV-amide (negatively charged module); assay: mixing-induced co-assembly into hydrogel, dynamic rheometry
T3 construct: Synthetic designed decapeptide; also called Acetyl-EW(EV)4-amide; negatively-charged peptide module
T3 peptide: Ac-EWEVEVEVEV-NH2

SEQ ID NO 5 = target: T4, SEQ ID NO 5; assay: as above
T4 construct: All peptides were made on Rink Amide resin; also called member of the serine pair
T4 peptide: EWESESESES-NH2

Molecule: Acetyl-EWEVEVEVEV-amide (Ac-EWEVEVEVEV-NH2) [SEQ ID NO 1, negatively charged peptide module]
state of sample at 1.5 M NaCl ([2]; 1.5 M salt concentration): still a viscous solution | final NaCl concentration for salt-induced gelation [2]: 3 M

Molecule: Acetyl-KWKVKVKVKVKVKVK-amide (Ac-KWKVKVKVKVKVKVK-NH2) [SEQ ID NO 2, positively charged peptide module]
final NaCl concentration for salt-induced gelation [2]: 1.5 M

Molecule: Ac-WKAKAKAKAK-NH2 (also called KAW10) [SEQ ID NO 8, Acetyl-WKAKAKAKAK-amide (positively charged module)]
binding result [3]: binds | binding result [4]: binds

B1: SEQ ID NO 4 (peptide)
peptide: WKSKSKSKSK-NH2
notes: All peptides were made on Rink Amide resin; also called member of the serine pair
binding result (SEQ ID NO 5): binds

Further lines, results first:

solubility at pH 7 [1]: did not appear to be high enough
Molecule: Ac-WKVKVKVKVK-NH2 [SEQ ID NO 3, Acetyl-WKVKVKVKVK-amide]

binding result [5]: binds
Molecule: Ac-KWKVKVKVKVKVKVK-NH2 (Synthetic designed 15-mer) [SEQ ID NO 2, Acetyl-KWKVKVKVKVKVKVK-amide (positively charged module)]

binding result [3]: binds | binding result [4]: binds
Molecule: Ac-KWKAKAKAKAKAKAK-NH2 (Synthetic designed 15-mer) [SEQ ID NO 11, Acetyl-KWKAKAKAKAKAKAK-amide (positively charged module)]

binding result [5]: binds
B2: SEQ ID NO 3, Acetyl-WKVKVKVKVK-amide (positively charged module) (peptide)
peptide: Ac-WKVKVKVKVK-NH2
notes: Synthetic designed decapeptide; also called Acetyl-WK(VK)4-amide; positively-charged peptide module
